Test results reported in PMC6018217, “3-Hydroxyphthalic Anhydride- Modified Rabbit Anti-PAP IgG as a Potential Bifunctional HIV-1 Entry Inhibitor” (Frontiers in Microbiology, 2018).

Target: the molecule itself
Experiment: amyloid fibril formation (ThT fluorescence, Congo red, TEM, CD); PAP248-286 alone at 3 mg/ml in PBS, agitated at 1,400 rpm, 37°C, 0-48 h; fibrils read by ThT fluorescence, Congo red staining, negative-stain TEM and CD

B1: Peptide PAP248-286 (amino acid residues 248-286 of prostatic acidic phosphatase) (peptide, UniProt P15309 248-286, looked up)
peptide: GIHKQKEKSRLQGGVLVNEILNHMKRATQIPSYKKLIMY
notes: Forms SEVI amyloid fibrils when agitated at 3 mg/ml in PBS, 37°C; also called SEVI; SEVI fibrils; source: synthetic peptide (Fmoc solid phase, GL Biochem, HPLC purified)
binding result: binds
